These results are taken from article PMC7612745 (Nature, 2019).

Where no end group is shown, it is not given here.

The target in assay [1] is T1, Thermus thermophilus multidrug resistance proteins A and B (TmrAB), wild type heterodimer (Thermus thermophilus, UniProt Q72J05;Q72J04).
T1 sequence 1: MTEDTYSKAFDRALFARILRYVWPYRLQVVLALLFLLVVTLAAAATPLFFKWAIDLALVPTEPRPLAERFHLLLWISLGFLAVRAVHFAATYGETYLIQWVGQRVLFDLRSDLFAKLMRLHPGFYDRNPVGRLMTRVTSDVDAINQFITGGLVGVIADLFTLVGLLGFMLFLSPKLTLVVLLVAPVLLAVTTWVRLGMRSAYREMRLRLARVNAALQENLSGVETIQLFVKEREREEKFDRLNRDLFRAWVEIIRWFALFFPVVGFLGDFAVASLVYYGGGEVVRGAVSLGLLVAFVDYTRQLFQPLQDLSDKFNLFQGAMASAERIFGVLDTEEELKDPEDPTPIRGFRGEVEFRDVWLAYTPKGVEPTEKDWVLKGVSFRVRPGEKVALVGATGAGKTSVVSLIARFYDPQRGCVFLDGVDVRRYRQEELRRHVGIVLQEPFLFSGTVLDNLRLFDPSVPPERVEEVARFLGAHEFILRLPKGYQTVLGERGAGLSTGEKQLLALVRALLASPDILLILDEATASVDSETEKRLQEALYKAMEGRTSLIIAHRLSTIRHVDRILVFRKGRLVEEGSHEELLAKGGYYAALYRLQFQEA
T1 sequence 2: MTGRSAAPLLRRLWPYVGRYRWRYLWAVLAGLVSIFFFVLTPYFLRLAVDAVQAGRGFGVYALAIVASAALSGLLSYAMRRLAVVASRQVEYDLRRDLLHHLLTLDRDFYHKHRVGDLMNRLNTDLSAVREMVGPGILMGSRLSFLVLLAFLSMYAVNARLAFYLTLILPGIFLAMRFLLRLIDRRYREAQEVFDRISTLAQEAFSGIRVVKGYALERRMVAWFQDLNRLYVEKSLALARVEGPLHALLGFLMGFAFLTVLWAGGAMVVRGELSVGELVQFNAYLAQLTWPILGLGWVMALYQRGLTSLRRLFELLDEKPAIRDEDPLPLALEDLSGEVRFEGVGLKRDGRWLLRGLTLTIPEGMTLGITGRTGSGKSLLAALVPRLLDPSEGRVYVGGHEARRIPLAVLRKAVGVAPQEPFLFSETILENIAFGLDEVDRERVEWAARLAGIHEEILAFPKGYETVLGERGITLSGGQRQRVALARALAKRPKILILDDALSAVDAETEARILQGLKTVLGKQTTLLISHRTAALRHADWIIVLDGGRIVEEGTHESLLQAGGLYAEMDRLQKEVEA
Description: fluorescence polarisation. (In general: Polarisation of emitted light reports the rotation of a fluorescent probe.)

For assay [2], the target named is isolated nucleotide-binding domain of TmrB (NBD of TmrB) (Thermus thermophilus HB27, UniProt Q72J04). Description: SEC.

Regarding RRYC(fluorescein)KSTEL [fluorescent peptide RRY(C^Fluorescein)KSTEL (C4F)], in assay [1], the binding result was “binds”.

B1: Nb9F10, TmrAB-specific nanobody (alpaca) (VHH)
VHH: QLQLVESGGGLVQPGDSLRLSCAVSGSALDYNAIGWFRQAPGKEREGVACISKITGNTAYADSVKGRFTISRDNAKNTVHLQMNSLKPEDTAVYYCATVTAVLLPGRCVPGKYWGQGTPVTVSS
Take B1: in assay [2], the binding result is “binds”.
